Experimental findings from article PMC8690919 (Theranostics, 2022) are described below.

Sequences and labels used below:
B1: FI-3A Fab (Fab, V domains shown)
VH: EVQLLESGGGLIQPGGSLRLSCAASGFTVSSNYMSWVRQAPGKGLEWVSVIYSGGSTYYADSVKGRFTISRDNSKNTLYLQMNSLRAEDTAVYYCARDHVRPGMNIWGQGTMVTVSS
VL: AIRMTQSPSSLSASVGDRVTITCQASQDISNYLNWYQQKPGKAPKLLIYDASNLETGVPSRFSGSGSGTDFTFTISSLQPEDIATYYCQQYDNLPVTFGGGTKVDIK
B2: FD-5D Fab (Fab, V domains shown)
VH: EVQLVESGGGLVQPGGSLRLSCAASGFTFSSYSMNWVRQAPGKGLEWVSYISSSSSTIYYADSVKGRFTISRDNAKNSLYLQMNSLRAEDTAVYYCASPGGITAAGTSVLFGYYGMDVWGQGTTVTVSS
VL: not shown
B3: FD-11A Fab (Fab, V domains shown)
VH: EVQLVESGGGVVQPGRSLRLSCAASGFTFSSYGMHWVRQAPGKGLEWVAVIWYDGSNKYYADSVKGRFTISRDNSKNTLYLQMNSLRAEDTAVYYCAKGPDILTGYYNYYYYGMDVWGQGTMVTVSS
VL: QSVLTQPPSVSGAPGQRVTISCTGSSSNIGAGYDVHWYQQLPGTAPKLLIYGNSNRPSGVPDRFSGSKSGTSASLAITGLQAEDEADYYCQSYDSSLSGFYVVFGGGTKLTVL

The experiment concerns the target T1, SARS-CoV-2 receptor-binding domain (RBD), His-tagged (SARS-CoV-2, UniProt P0DTC2).
T1 construct: also called viral RBD; His-tagged RBD
The experiment in a line: crystal structure. The note with it: both partners purified.
In the case of B1, the binding result is on record as “binds”.

For the molecule B2, the binding result is “binds”.

For the molecule B3, the binding result is given as “binds”.
